Test results published in patent publication US20110263454A1, “Methods of Identifying Functional Characteristics of Promoters, Transcription Modifying Proteins and Transcription Modulating Agents” (Salk Institute for Biological Studies, priority 2008, published 2011).

B1: NR4a3: NR4a3 (NR4A3; NOR1), nuclear hormone receptor cDNA driver (protein, UniProt Q92570 1-626, looked up)
Nuclear receptor subfamily 4 …: MPCVQAQYSPSPPGSSYAAQTYSSEYTTEIMNPDYTKLTMDLGSTEITATATTSLPSISTFVEGYSSNYELKPSCVYQMQRPLIKVEEGRAPSYHHHHHHHHHHHHHHQQQHQQPSIPPASSPEDEVLPSTSMYFKQSPPSTPTTPAFPPQAGALWDEALPSAPGCIAPGPLLDPPMKAVPTVAGARFPLFHFKPSPPHPPAPSPAGGHHLGYDPTAAAALSLPLGAAAAAGSQAAALESHPYGLPLAKRAAPLAFPPLGLTPSPTASSLLGESPSLPSPPSRSSSSGEGTCAVCGDNAACQHYGVRTCEGCKGFFKRTVQKNAKYVCLANKNCPVDKRRRNRCQYCRFQKCLSVGMVKEVVRTDSLKGRRGRLPSKPKSPLQQEPSQPSPPSPPICMMNALVRALTDSTPRDLDYSRYCPTDQAAAGTDAEHVQQFYNLLTASIDVSRSWAEKIPGFTDLPKEDQTLLIESAFLELFVLRLSIRSNTAEDKFVFCNGLVLHRLQCLRGFGEWLDSIKDFSLNLQSLNLDIQALACLSALSMITERHGLKEPKRVEELCNKITSSLKDHQSKGQALEPTESKVLGALVELRKICTLGLQRIFYLKLEDLVSPPSIIDKLFLDTLPF
B2: GCNF: Germ Cell Nuclear Factor (NR6A1, GCNF1), cDNA driver (protein, UniProt Q15406 1-480, looked up)
Nuclear receptor subfamily 6 …: MERDEPPPSGGGGGGGSAGFLEPPAALPPPPRNGFCQDELAELDPGTISVSDDRAEQRTCLICGDRATGLHYGIISCEGCKGFFKRSICNKRVYRCSRDKNCVMSRKQRNRCQYCRLLKCLQMGMNRKAIREDGMPGGRNKSIGPVQISEEEIERIMSGQEFEEEANHWSNHGDSDHSSPGNRASESNQPSPGSTLSSSRSVELNGFMAFREQYMGMSVPPHYQYIPHLFSYSGHSPLLPQQARSLDPQSYSLIHQLLSAEDLEPLGTPMLIEDGYAVTQAELFALLCRLADELLFRQIAWIKKLPFFCELSIKDYTCLLSSTWQELILLSSLTVYSKQIFGELADVTAKYSPSDEELHRFSDEGMEVIERLIYLYHKFHQLKVSNEEYACMKAINFLNQDIRGLTSASQLEQLNKRYWYICQDFTEYKYTHQPNRFPDLMMCLPEIRYIAGKMVNVPLEQLPLLFKVVLHSCKTSVGKE
B3: DAX-1: DAX1 (NR0B1), cDNA driver (protein, UniProt P51843 1-470, looked up)
Nuclear receptor subfamily 0 …: MAGENHQWQGSILYNMLMSAKQTRAAPEAPETRLVDQCWGCSCGDEPGVGREGLLGGRNVALLYRCCFCGKDHPRQGSILYSMLTSAKQTYAAPKAPEATLGPCWGCSCGSDPGVGRAGLPGGRPVALLYRCCFCGEDHPRQGSILYSLLTSSKQTHVAPAAPEARPGGAWWDRSYFAQRPGGKEALPGGRATALLYRCCFCGEDHPQQGSTLYCVPTSTNQAQAAPEERPRAPWWDTSSGALRPVALKSPQVVCEAASAGLLKTLRFVKYLPCFQVLPLDQQLVLVRNCWASLLMLELAQDRLQFETVEVSEPSMLQKILTTRRRETGGNEPLPVPTLQHHLAPPAEARKVPSASQVQAIKCFLSKCWSLNISTKEYAYLKGTVLFNPDVPGLQCVKYIQGLQWGTQQILSEHTRMTHQGPHDRFIELNSTLFLLRFINANVIAELFFRPIIGTVSMDDMMLEMLCTKI
B4: SHP: Small Heterodimer Partner (NR0B2), cDNA driver (protein, UniProt Q15466 1-257, looked up)
Nuclear receptor subfamily 0 …: MSTSQPGACPCQGAASRPAILYALLSSSLKAVPRPRSRCLCRQHRPVQLCAPHRTCREALDVLAKTVAFLRNLPSFWQLPPQDQRRLLQGCWGPLFLLGLAQDAVTFEVAEAPVPSILKKILLEEPSSSGGSGQLPDRPQPSLAAVQWLQCCLESFWSLELSPKEYACLKGTILFNPDVPGLQAASHIGHLQQEAHWVLCEVLEPWCPAAQGRLTRVLLTASTLKSIPTSLLGDLFFRPIIGDVDIAGLLGDMLLLR

System: hMyoD promoter
Assay: NHR-promoter luciferase screen, hMyoD promoter
Assay type: cell-based, human
Settings: MyoD promoter reporter; co-transfected HR, without or with its ligand
Outline: (§1)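 CV-1 cells were co-transfected with 50 ng NHR (homodimer or NHR/RXR heterodimer), 100 ng promoter-luciferase construct and 50 ng LacZ. Luciferase was normalized to LacZ and to a no-NHR/no-ligand control.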

Compared with B1, B2 is lower in “Luc. act., normalized to lacZ” value: 56.1 for the first, 50.5 for the second.

Compared with B3, B4 is lower in “Luc. act., normalized to lacZ” value: 61.3 for the first, 54.0 for the second.

Same assay, conditions: MyoD promoter reporter; co-transfected HR, without or with its ligand; relative to control

First: B1
Second: B2
The “Normalized Luc. act., normalized to control” value of the first is higher: 0.9 for the first, 0.8 for the second.

Compared with B3, B4 is lower in “Normalized Luc. act., normalized to control” value: 1.0 for the first, 0.9 for the second.

Same assay, conditions: hMyoD promoter-luciferase, CV-1 cells, NHR +/- ligand, control = 1.00

First: B1
Second: B2
The “luciferase activity normalized to lacZ activity and to a control, hMyoD” value of the first is higher: 0.89 for the first, 0.80 for the second.

Compared with B3, B4 is lower in “luciferase activity normalized to lacZ activity and to a control, hMyoD” value: 0.97 for the first, 0.85 for the second.

System: mPer1 promoter
Assay: NHR-promoter luciferase screen, mPer1 promoter
Assay type: cell-based, mouse
Settings: Per1 promoter reporter; co-transfected HR, with or without its ligand
Outline: as §1

Compared with B1, B2 is higher in “Luc. act., normalized to lacZ” value: 139.6 for the first, 151.9 for the second.

First: B3
Second: B4
The “Luc. act., normalized to lacZ” value of the first is higher: 153.4 for the first, 130.3 for the second.

Same assay, conditions: Per1 promoter reporter; co-transfected HR, with or without its ligand; relative to control

First: B1
Second: B2
The “Normalized Luc. act., normalized to control” value of the first is lower: 1.0 for the first, 1.1 for the second.

First: B3
Second: B4
The “Normalized Luc. act., normalized to control” value of the first is higher: 1.1 for the first, 0.9 for the second.

Same assay, conditions: mPer1 promoter-luciferase, CV-1 cells, NHR +/- ligand, control = 1.00

Going from B1 to B2, the “luciferase activity normalized to lacZ activity and to a control, mPer1” value rises from 0.97 to 1.06.

Going from B3 to B4, the “luciferase activity normalized to lacZ activity and to a control, mPer1” value falls from 1.07 to 0.90.

System: mUCP2 promoter
Assay: NHR-promoter luciferase screen, mUCP2 promoter
Assay type: cell-based, mouse
Settings: mUCP2 promoter reporter; co-transfected HR, with or without its ligand
Outline: as §1

Going from B1 to B2, the “Luc. act., normalized to lacZ” value falls from 150.1 to 139.9.

Compared with B3, B4 is higher in “Luc. act., normalized to lacZ” value: 158.6 for the first, 164.1 for the second.

Same assay, conditions: mUCP2 promoter reporter; co-transfected HR, with or without its ligand; relative to control

Going from B1 to B2, the “Normalized Luc. act., normalized to control” value falls from 1.4 to 1.3.

Compared with B3, B4 is higher in “Normalized Luc. act., normalized to control” value: 1.4 for the first, 1.5 for the second.

Same assay, conditions: mUCP2 promoter-luciferase, CV-1 cells, NHR +/- ligand, control = 1.00

First: B1
Second: B2
The “luciferase activity normalized to lacZ activity and to a control, mUCP2” value of the first is higher: 1.37 for the first, 1.27 for the second.

Going from B3 to B4, the “luciferase activity normalized to lacZ activity and to a control, mUCP2” value rises from 1.44 to 1.49.

System: MCP-1 promoter
Assay: NHR-promoter luciferase screen, MCP-1 promoter
Assay type: cell-based
Settings: MCP-1 promoter reporter; HR without or with its ligand; relative to control
Outline: as §1

Compared with B1, B2 is lower in “Normalized Luc. act., normalized to control” value: 0.5 for the first, 0.0 for the second.

First: B3
Second: B4
The “Normalized Luc. act., normalized to control” value of the first is lower: 1.0 for the first, 1.2 for the second.

Same assay, conditions: MCP-1 promoter reporter; hormone receptor (HR) without or with its ligand

First: B1
Second: B3
The “Luc. act., normalized to lacZ” value of the first is lower: 51.9 for the first, 108.9 for the second.

With B4 the “Luc. act., normalized to lacZ” value was 130.4.

Same assay, conditions: transcription factor +/- ligand; control = 1.00

Compared with B1, B2 is lower in “mMCP-1 promoter reporter activity” value: 0.48 for the first, 0.00 for the second.

Going from B3 to B4, the “mMCP-1 promoter reporter activity” value rises from 1.02 to 1.22.

System: hCYP3A4 promoter
Assay: NHR-promoter luciferase screen, hCYP3A4 promoter
Assay type: cell-based, human
Settings: CYP3A4 promoter; HR/ligand component
Outline: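 CV-1 cells co-transfected with NHR homodimer or NHR/RXR heterodimer (pcDNA3.1, C-terminal V5H6 tag), promoter-luciferase construct and LacZ transfection control. Orphan receptors screened without ligand. Luciferase normalized to LacZ and to no-NHR/no-ligand control.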

Compared with B1, B2 is higher in “Luc. act., normalized to lacZ” value: 4.2 for the first, 4.5 for the second.

Compared with B3, B4 is lower in “Luc. act., normalized to lacZ” value: 5.7 for the first, 4.6 for the second.

First: B1
Second: B2
The “Normalized Luc. act., normalized to control” value of the first is lower: 0.9 for the first, 1.0 for the second.

Going from B3 to B4, the “Normalized Luc. act., normalized to control” value falls from 1.3 to 1.0.

Same assay, conditions: transcription factor +/- ligand; control = 1.00

Going from B1 to B2, the “hCYP3A4 promoter reporter activity” value rises from 0.93 to 1.02.

First: B3
Second: B4
The “hCYP3A4 promoter reporter activity” value of the first is higher: 1.29 for the first, 1.04 for the second.

System: hPPARg1 promoter
Assay: NHR-promoter luciferase screen, hPPARg1 promoter
Assay type: cell-based, human
Settings: PPARG1 promoter; hormone receptor with or without its ligand
Outline: as §1

Going from B1 to B2, the “Luc. act., normalized to lacZ” value rises from 61.0 to 88.6.

First: B3
Second: B4
The “Luc. act., normalized to lacZ” value of the first is lower: 67.5 for the first, 67.9 for the second.

Same assay, conditions: PPARG1 promoter; hormone receptor with or without its ligand; relative to control

Compared with B1, B2 is higher in “Normalized Luc. act., normalized to control” value: 0.9 for the first, 1.3 for the second.

B3 and B4 are the same in “Normalized Luc. act., normalized to control” value: 1.0 for the first, 1.0 for the second.

Same assay, conditions: Table 6d; luciferase activity relative to control (control = 1.00)

First: B1
Second: B2
The “Results of assays of transcription factor (+/- ligand) with hPPARg1” value of the first is lower: 0.88 for the first, 1.29 for the second.

Compared with B3, B4 is higher in “Results of assays of transcription factor (+/- ligand) with hPPARg1” value: 0.98 for the first, 0.99 for the second.
